Assay results as given in patent publication US20110262396A1, “COMBINATION TREATMENTS COMPRISING PROTEASE BINDING PROTEINS FOR INFLAMMATORY DISORDERS” (DYAX CORP., priority 2008, published 2011).

How the values were obtained:
[1] = tested on: MMP-14 expressed in synovial cells; experiment: Collagen film degradation by human synovial cells (Example 8); assay type: cell-based; details: human fibroblasts on bovine type I collagen film, 4 days, data not shown; for collagen film degradation: 37° C.
Protocol: Human rheumatoid synovial fibroblasts spontaneously express high levels of MMP-14 (Miller et al, 2009 Arthritis Rheum. 2009 March; 60(3):686-97). When they are cultured on collagen film, MMP-14 expressed in synovial cells effectively degrades the collagen film. Human fibroblasts were cultured on bovine type I collagen film at 37° C. for 4 days in the presence or absence of a broad spectrum MMP-inhibitor GM6001, DX-2400 or DX-2410. Cells were then removed from collagen surface by trypsin/EDTA to reveal collagen film. Films were then fixed with 3% PFA for 30 min. and stained with Coomassie blue.

[2] = tested on: collagen-induced arthritis (CIA); experiment: CIA mouse model, DX-2712 as monotherapy or combined with DMARDs or BRMs (Example 7); assay type: in vivo, mouse (DBA/1); details: end of study, 31 days of therapy; number in parentheses = dose in mg/kg (Table 12); DX-2712 20 mg/kg IP Q2D
LNCaPs (prostate cancer) = experiment: DHT-stimulated invasion of LNCaPs through Matrigel; assay type: cell-based; details: DX-1000 1 nM
Protocol: (§1) Firstly, DX-1000 (1 nM) inhibited both DHT-stimulated invasion of LNCaPs (prostate cancer) and HT-1080 (fibrosarcoma) through Matrigel, processes known to be dependent on the plasminogen/plasmin system.

mouse endothelial cells = experiment: Tube formation of mouse endothelial cells; assay type: cell-based; details: 1-10 nM; plated on Matrigel or collagen type I
[3] = Global coagulation screening tests
gelatinases = experiment: Expression and activation of gelatinases; assay type: cell-based
human endothelial cells = experiment: Tube formation of human endothelial cells; assay type: cell-based; details: 1-10 nM; plated on Matrigel or collagen type I
HT-1080 (fibrosarcoma) = experiment: Invasion of HT-1080 through Matrigel; assay type: cell-based; details: DX-1000 1 nM
Protocol: as §1

[4] = Platelet function screening test
[5] = tested on: collagen-induced arthritis (CIA); experiment: DX-2400 and DX-2410 in CIA mouse model (Example 10); assay type: in vivo, mouse (DBA); details: 20 mg/kg i.p. 3x/week from day 21 after collagen injection; for development of arthritis as assessed by histological analysis of the joints: FIG. 9(A)
Protocol: 200 μg of chicken type II collagen was injected subcutaneously with complete Freunds adjuvant in DBA mice (male, 3-4 months old). After 21 days, test compounds were administered i.p. at 20 mg/kg, 3×/week. The first mouse which developed clinical symptom of arthritis was detected 26 days after collagen injection. […] FIG. 9(B) provides a description of the histology scoring system used.

human plasmin = target: T1, human plasmin (human, UniProt P00747 97-810, limits assumed); experiment: inhibition of human plasmin; method not described
T1 construct: In the cell invasion assays the plasmin is that of the cell cultures
T1 sequence (P00747 97-810 limits assumed): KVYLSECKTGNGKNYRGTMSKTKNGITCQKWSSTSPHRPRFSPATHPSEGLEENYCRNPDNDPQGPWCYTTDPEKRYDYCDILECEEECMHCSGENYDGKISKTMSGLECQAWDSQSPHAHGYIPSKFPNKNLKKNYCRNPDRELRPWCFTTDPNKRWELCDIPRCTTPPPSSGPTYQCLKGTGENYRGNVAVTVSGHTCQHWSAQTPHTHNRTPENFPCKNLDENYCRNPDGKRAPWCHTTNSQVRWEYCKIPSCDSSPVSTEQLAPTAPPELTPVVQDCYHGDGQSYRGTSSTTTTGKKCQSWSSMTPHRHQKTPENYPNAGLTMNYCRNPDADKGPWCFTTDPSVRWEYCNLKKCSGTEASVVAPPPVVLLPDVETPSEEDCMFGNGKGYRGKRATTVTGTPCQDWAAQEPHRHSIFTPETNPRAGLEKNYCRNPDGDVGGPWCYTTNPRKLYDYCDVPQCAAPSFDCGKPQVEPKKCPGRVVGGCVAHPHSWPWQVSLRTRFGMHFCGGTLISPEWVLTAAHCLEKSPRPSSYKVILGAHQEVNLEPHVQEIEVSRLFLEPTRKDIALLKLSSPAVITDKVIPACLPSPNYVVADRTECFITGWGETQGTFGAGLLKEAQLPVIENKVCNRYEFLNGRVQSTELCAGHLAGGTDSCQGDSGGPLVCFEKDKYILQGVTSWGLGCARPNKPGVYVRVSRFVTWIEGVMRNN

[6] = tested on: collagen-induced arthritis (CIA); experiment: MMP-12 inhibition in mouse collagen-induced arthritis (Example 1); assay type: in vivo; details: 20 mg/kg IP Q2D
Description: The study design was as depicted in Table 6 below. [table]

mouse MMP-9 = mouse MMP-9 (Mus musculus, UniProt P41245); experiment: Inhibition of mouse MMP-9; assay type: biochemical
mouse MMP-9, sequence (P41245 108-730): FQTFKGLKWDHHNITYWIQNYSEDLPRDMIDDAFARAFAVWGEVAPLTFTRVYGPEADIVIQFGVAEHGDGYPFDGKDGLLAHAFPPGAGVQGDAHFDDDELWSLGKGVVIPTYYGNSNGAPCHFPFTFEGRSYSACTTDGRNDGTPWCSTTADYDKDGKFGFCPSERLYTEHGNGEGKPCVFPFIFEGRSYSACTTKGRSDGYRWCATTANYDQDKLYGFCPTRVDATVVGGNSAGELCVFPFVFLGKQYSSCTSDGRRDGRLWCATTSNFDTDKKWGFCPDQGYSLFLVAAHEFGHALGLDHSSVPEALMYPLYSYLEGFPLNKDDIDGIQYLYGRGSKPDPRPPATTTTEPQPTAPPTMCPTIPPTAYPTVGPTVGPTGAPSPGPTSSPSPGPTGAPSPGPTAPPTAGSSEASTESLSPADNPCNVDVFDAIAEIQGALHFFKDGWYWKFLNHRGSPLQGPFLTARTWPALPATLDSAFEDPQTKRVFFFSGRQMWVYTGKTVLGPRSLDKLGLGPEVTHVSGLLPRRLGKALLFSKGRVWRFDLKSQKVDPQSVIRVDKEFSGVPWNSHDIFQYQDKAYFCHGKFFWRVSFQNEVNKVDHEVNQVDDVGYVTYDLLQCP

human MMP-9 = human MMP-9 (Homo sapiens, UniProt P14780); experiment: Inhibition of human MMP-9; assay type: biochemical
human MMP-9, sequence (P14780 94-707): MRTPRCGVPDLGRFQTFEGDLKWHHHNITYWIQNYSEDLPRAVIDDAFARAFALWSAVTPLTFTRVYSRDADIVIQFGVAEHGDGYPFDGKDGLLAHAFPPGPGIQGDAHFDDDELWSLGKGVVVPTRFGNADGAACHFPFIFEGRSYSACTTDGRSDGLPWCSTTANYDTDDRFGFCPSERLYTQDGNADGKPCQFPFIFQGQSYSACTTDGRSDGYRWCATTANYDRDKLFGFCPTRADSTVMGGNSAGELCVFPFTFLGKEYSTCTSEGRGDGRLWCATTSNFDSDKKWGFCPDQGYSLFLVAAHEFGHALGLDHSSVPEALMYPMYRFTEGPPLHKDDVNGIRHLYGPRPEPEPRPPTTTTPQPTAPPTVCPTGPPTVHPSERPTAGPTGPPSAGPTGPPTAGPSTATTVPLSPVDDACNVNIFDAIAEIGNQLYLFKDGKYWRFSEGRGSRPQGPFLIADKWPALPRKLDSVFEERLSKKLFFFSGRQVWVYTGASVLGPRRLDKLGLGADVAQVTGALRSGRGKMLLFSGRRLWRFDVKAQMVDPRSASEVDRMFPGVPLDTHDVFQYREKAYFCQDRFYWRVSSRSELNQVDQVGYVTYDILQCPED

With CNC(=O)[C@H](Cc1c[nH]c2ccccc12)NC(=O)[C@@H](CC(=O)NO)CC(C)C [GM6001, reference compound] the collagen film degradation [1] was “completely abolished”.

For CN(Cc1cnc2nc(N)nc(N)c2n1)c1ccc(C(=O)N[C@@H](CCC(=O)O)C(=O)O)cc1 [MTX (3), methotrexate], the “% change in AI Score” value [2] was −80.74%.

In the case of “DX-1000: Kunitz domain polypeptide that inhibits human plasmin; SEQ ID NO:100 or SEQ ID NO:200 (EAMHSFCAFKAETGPCRARFDRWFFNIFTRQCEEFIYGGCEGNQNRFESLEECKKMCTRD)”, the “DHT-stimulated invasion of LNCaPs through Matrigel” value (LNCaPs (prostate cancer)) is reported as “inhibited”, the “tube formation of mouse endothelial cells” value (mouse endothelial cells) is reported as “efficiently blocked” and the “effects on global coagulation screening tests” value [3] is reported as “no clinically significant effects”. For the same molecule, the “expression and activation of gelatinases” value (gelatinases) was “down-regulated efficiently”, the “tube formation of human endothelial cells” value (human endothelial cells) was “efficiently blocked” and the “invasion of HT-1080 through Matrigel” value (HT-1080 (fibrosarcoma)) was “inhibited”. For the same molecule, the “effects on a platelet function screening test” value [4] was “no clinically significant effects”.

For Etanercept [Enbrel (30)], the “% change in AI Score” value [2] was −70.37%.

B1: DX-2400: exemplary MMP-14 antibody; VH SEQ ID NO:59, VL SEQ ID NO:23 (antibody, V domains shown)
VH: EVQLLESGGGLVQPGGSLRLSCAASGFTFSLYSMNWVRQAPGKGLEWVSSIYSSGGSTLYADSVKGRFTISRDNSKNTLYLQMNSLRAEDTAVYYCARGRAFDIWGQGTMVTVSS
VL: DIQMTQSPSSLSASVGDRVTITCRASQSVGTYLNWYQQKPGKAPKLLIYATSNLRSGVPSRFSGSGSGTDFTLTISSLQPEDFATYYCQQSYSIPRFTFGPGTKVDIK
For B1, the “inhibition of collagen film degradation at 500 nM” value [1] was “almost complete inhibition”, the collagen film degradation [1] was “inhibited collagen degradation in a dose-dependent manner” and the “redness and swelling of paws” value [5] was “did not significantly improve”. The “development of arthritis as assessed by histological analysis of the joints” value [5] was “significantly attenuated”.

B2: DX-1000 (designed binder)
chain: EAMHSFCAFKAETGPCRARFDRWFFNIFTRQCEEFIYGGCEGNQNRFESLEECKKMCTRD
Molecule B2 has a Ki (human plasmin) of 0.088 nM.

B3: DX-2410: exemplary MMP-14 antibody; VH SEQ ID NO:24, VL SEQ ID NO:25 (antibody, V domains shown)
VH: EVQLLESGGGLVQPGGSLRLSCAASGFTFSVYGMVWVRQAPGKGLEWVSVISSSGGSTWYADSVKGRFTISRDNSKNTLYLQMNSLRAEDTAVYYCARPFSRRYGVFDYWGQGTLVTVSS
VL: DIQMTQSPSSLSASVGDRVTITCRASQGIRNFLAWYQQKPGKVPKLLIYGASALQSGVPSRFSGSGSGTDFTLTISSLQPEDVATYYCQKYNGVPLTFGGGTKVEIK
In the case of B3, the “inhibition of collagen film degradation at 500 nM” value [1] is reported as “slightly lower than DX-2400, showing degraded area”, the collagen film degradation [1] is reported as “inhibited collagen degradation in a dose-dependent manner” and the “redness and swelling of paws” value [5] is reported as “did not significantly improve”. For the same molecule, the “development of arthritis as assessed by histological analysis of the joints” value [5] was “significantly attenuated”.

B4: DX-2712: Dyax inhibitor of MMP-12; specific MMP-12 antibody inhibitor; VL SEQ ID NO:118, VH SEQ ID NO:120 (antibody, V domains shown)
VH: EVQLLESGGGLVQPGGSLRLSCAASGFTFSWYWMHWVRQAPGKGLEWVSGISPSGGMTMYADSVKGRFTISRDNSKNTLYLQMNSLRAEDTAVYYCARDIVGPYSAGLFDYWGRGTLVTVSS
VL: DIQMTQSPSSLSASVGDRVTITCRASQSIYTYLNWYQQKPGKAPKLLIYAASSLQSGVPSRFSGSGSGTDFTLTISSLQPEDFATYYCQQAGIFGQGTKLEIK
In the case of B4, the “overall inhibition of the arthritic histological indices” value ([6]; compared to untreated mice, p<0.05, FIG. 3) is reported as 29%, the “disease development (arthritic score)” value ([6]; days 36-46, FIG. 2) is reported as “arrested” and the arthritic score ([6]; last day of the study, FIG. 2) is reported as “sharp increase in arthritic score”. For the same molecule, the “disease development (arthritic score)” value ([6]; through day 35, FIG. 2) was “delayed disease development” and the “% change in AI Score” value [2] was −34.07%.

B5: 539A-M0240-B03: selective inhibitor of MMP-9; parental isolate (sFab; IgG) (antibody, V domains shown)
VL: QYELTQPRSVSGSPGQSVTISCTGTSSDVGGYNYVSWYQQHPGKAPKLMIYDVSKRPSGVPDRFSGSKSGNTASLTISGLQAEDEADYYCCSYAGSYTLVFGGGTKLTVL
VH: EVQLLESGGGLVQPGGSLRLSCAASGFTFSTYQMVWVRQAPGKGLEWVSVIYPSGGPTVYADSVKGRFTISRDNSKNTLYLQMNSLRAEDTAVYYCARGEDYYDSSGPGAFDIWGQGTMVTVSS
In the case of B5, the “inhibition of mouse MMP-9 activity” value (mouse MMP-9) is reported as “can decrease or inhibit the activity” and the “inhibition of human MMP-9 activity” value (human MMP-9) is reported as “can decrease or inhibit the activity”.
